This assay concerns the target T1, NEMO (NF-κB essential modulator), tag-free, biotinylated (human, UniProt Q9Y6K9 1-419, biotin (in vitro biotinylation kit, biotin:NEMO molar ratio 9:1)).
T1 construct: NEMO, NF-κB essential modulator, human, 48 kDa; also called biotinylated NEMO; biotin-NEMO; source: E. coli BL21(DE3), purified (glutathione sepharose), GST removed with thrombin, biotinylated in vitro
Briefly: peptide or protein array; Invitrogen Protoarray v4.0, about 8,400 human proteins spotted on nitrocellulose-coated glass slides; 10 µg biotinylated tag-free NEMO in 120 µl probing buffer (PBS, 0.5 mM DTT, 5 mM MgCl2, 5% glycerol, 0.05% Triton X-100), 4°C, 1.5 h; bound NEMO detected with labelled streptavidin; hits Z-score > 3, hits of the biotin-GST control array subtracted. As to conditions: both partners purified.

B1: Adenine phosphoribosyltransferase (natural protein, human, UniProt P07741-1 1-180, looked up)
chain: MADSELQLVEQRIRSFPDFPTPGVVFRDISPVLKDPASFRAAIGLLARHLKATHGGRIDYIAGLDSRGFLFGPSLAQELGLGCVLIRKRGKLPGPTLWASYSLEYGKAELEIQKDALEPGQRVVVVDDLLATGGTMNAACELLGRLQAEVLECVSLVELTSLKGREKLAPVPFFSLLQYE
notes: Adenine phosphoribosyltransferase, human; also called APRT; source: insect cell/baculovirus, purified, spotted (Invitrogen Protoarray v4.0)
Consider B1, for which the binding result is “binds”.

B2: Chromosome 19 open reading frame 12 (natural protein, human, UniProt Q9NSK7-4 1-141, looked up)
chain: MTIMVEDIMKLLCSLSGERKMKAAVKHSGKGALVTGAMAFVGGLVGGPPGLAVGGAVGGLLGAWMTSGQFKPVPQILMELPPAEQQRLFNEAAAIIRHLEWTDAVQLTALVMGSEALQQQLLAMLVNYVTKELRAEIQYDD
notes: Chromosome 19 open reading frame 12, human; also called C19ORF12; source: insect cell/baculovirus, purified, spotted (Invitrogen Protoarray v4.0)
Take B2: the binding result is recorded as “binds”.

B3: PHD finger protein 7 (natural protein, human, UniProt Q9BWX1-1 1-381, looked up)
chain: MKTVKEKKECQRLRKSAKTRRVTQRKPSSGPVCWLCLREPGDPEKLGEFLQKDNISVHYFCLILSSKLPQRGQSNRGFHGFLPEDIKKEAARASRKICFVCKKKGAAINCQKDQCLRNFHLPCGQERGCLSQFFGEYKSFCDKHRPTQNIQHGHVGEESCILCCEDLSQQSVENIQSPCCSQAIYHRKCIQKYAHTSAKHFFKCPQCNNRKEFPQEMLRMGIHIPDRDAAWELEPGAFSDLYQRYQHCDAPICLYEQGRDSFEDEGRWCLILCATCGSHGTHRDCSSLRSNSKKWECEECSPAAATDYIPENSGDIPCCSSTFHPEEHFCRDNTLEENPGLSWTDWPEPSLLEKPESSRGRRSYSWRSKGVRITNSCKKSK
notes: PHD finger protein 7, human; also called PHF7; source: insect cell/baculovirus, purified, spotted (Invitrogen Protoarray v4.0)
Take B3: the binding result is recorded as “binds”.

B4: t-complex 10 (mouse)-like (natural protein, human, UniProt Q8TDR4 1-215, looked up)
chain: MLAGQLEARDPKEGTHPEDPCPGAGAVMEKTAVAAEVLTEDCNTGEMPPLQQQIIRLHQELGRQKSLWADVHGKLRSHIDALREQNMELREKLRALQLQRWKARKKSAASPHAGQESHTLALEPAFGKISPLSADEETIPKYAGHKNQSATLLGQRSSSNNSAPPKPMSLKIERISSWKTPPQENRDKNLSRRRQDRRATPTGRPTPCAERRGGV
notes: t-complex 10 (mouse)-like, human; also called TCP10L; source: insect cell/baculovirus, purified, spotted (Invitrogen Protoarray v4.0)
In the case of B4, the binding result is given as “binds”.

B5: Nucleolar protein family A, member 2 (natural protein, human, UniProt Q9NX24 1-153, looked up)
chain: MTKIKADPDGPEAQAEACSGERTYQELLVNQNPIAQPLASRRLTRKLYKCIKKAVKQKQIRRGVKEVQKFVNKGEKGIMVLAGDTLPIEVYCHLPVMCEDRNLPYVYIPSKTDLGAAAGSKRPTCVIMVKPHEEYQEAYDECLEEVQSLPLPL
notes: Nucleolar protein family A, member 2, human; also called NOLA2; source: insect cell/baculovirus, purified, spotted (Invitrogen Protoarray v4.0)
With B5, the binding result is “binds”.

B6: Growth arrest and DNA-damage-inducible, gamma (natural protein, human, UniProt O95257 1-159, looked up)
chain: MTLEEVRGQDTVPESTARMQGAGKALHELLLSAQRQGCLTAGVYESAKVLNVDPDNVTFCVLAAGEEDEGDIALQIHFTLIQAFCCENDIDIVRVGDVQRLAAIVGAGEEAGAPGDLHCILISNPNEDAWKDPALEKLSLFCEESRSVNDWVPSITLPE
notes: Growth arrest and DNA-damage-inducible, gamma, human; also called GADD45G; source: insect cell/baculovirus, purified, spotted (Invitrogen Protoarray v4.0)
Consider B6, for which the binding result is given as “binds”.

B7: Vesicle-associated membrane protein 3 (cellubrevin) (natural protein, human, UniProt Q15836 1-100, looked up)
chain: MSTGPTAATGSNRRLQQTQNQVDEVVDIMRVNVDKVLERDQKLSELDDRADALQAGASQFETSAAKLKRKYWWKNCKMWAIGITVLVIFIIIIIVWVVSS
notes: Vesicle-associated membrane protein 3 (cellubrevin), human; also called VAMP3; source: insect cell/baculovirus, purified, spotted (Invitrogen Protoarray v4.0)
For B7, the binding result is recorded as “binds”.

B8: LIM and cysteine-rich domains 1 (natural protein, human, UniProt Q9NZU5-1 1-365, looked up)
chain: MAKVAKDLNPGVKKMSLGQLQSARGVACLGCKGTCSGFEPHSWRKICKSCKCSQEDHCLTSDLEDDRKIGRLLMDSKYSTLTARVKGGDGIRIYKRNRMIMTNPIATGKDPTFDTITYEWAPPGVTQKLGLQYMELIPKEKQPVTGTEGAFYRRRQLMHQLPIYDQDPSRCRGLLENELKLMEEFVKQYKSEALGVGEVALPGQGGLPKEEGKQQEKPEGAETTAATTNGSLSDPSKEVEYVCELCKGAAPPDSPVVYSDRAGYNKQWHPTCFVCAKCSEPLVDLIYFWKDGAPWCGRHYCESLRPRCSGCDEIIFAEDYQRVEDLAWHRKHFVCEGCEQLLSGRAYIVTKGQLLCPTCSKSKRS
notes: LIM and cysteine-rich domains 1, human; also called LMCD1; source: insect cell/baculovirus, purified, spotted (Invitrogen Protoarray v4.0)
For B8, the binding result is on record as “binds”.

B9: Hemoglobin, zeta (natural protein, human, UniProt P02008 1-142, looked up)
chain: MSLTKTERTIIVSMWAKISTQADTIGTETLERLFLSHPQTKTYFPHFDLHPGSAQLRAHGSKVVAAVGDAVKSIDDIGGALSKLSELHAYILRVDPVNFKLLSHCLLVTLAARFPADFTAEAHAAWDKFLSVVSSVLTEKYR
notes: Hemoglobin, zeta, human; also called HBZ; source: insect cell/baculovirus, purified, spotted (Invitrogen Protoarray v4.0)
For B9, the binding result is reported as “binds”.

B10: Tumor protein, translationally-controlled 1 (natural protein, human, UniProt P13693 1-172, looked up)
chain: MIIYRDLISHDEMFSDIYKIREIADGLCLEVEGKMVSRTEGNIDDSLIGGNASAEGPEGEGTESTVITGVDIVMNHHLQETSFTKEAYKKYIKDYMKSIKGKLEEQRPERVKPFMTGAAEQIKHILANFKNYQFFIGENMNPDGMVALLDYREDGVTPYMIFFKDGLEMEKC
notes: Tumor protein, translationally-controlled 1, human; also called TPT1; source: insect cell/baculovirus, purified, spotted (Invitrogen Protoarray v4.0)
In the case of B10, the binding result was “binds”.

B11: Family with sequence similarity 128, member A (natural protein, human, UniProt Q6P582 1-158, looked up)
chain: MAAQGVGPGPGSAAPPGLEAARQKLALRRKKVLSTEEMELYELAQAAGGGIDPDVFKILVDLLKLNVAPLAVFQMLKSMCAGQRLASEPQDPAAVSLPTSSVPETRGRDKGSAALGGVLALAERSNHEGSSQRMPRQPSATRLPKGGGPGKSPTQGST
notes: also called FAM128A; source: insect cell/baculovirus, purified, spotted (Invitrogen Protoarray v4.0)
On to B11, for which the binding result is recorded as “binds”.

B12: DnaJ (Hsp40) homolog, subfamily C, member 8 (natural protein, human, UniProt O75937 1-253, looked up)
chain: MAASGESGTSGGGGSTEEAFMTFYSEVKQIEKRDSVLTSKNQIERLTRPGSSYFNLNPFEVLQIDPEVTDEEIKKRFRQLSILVHPDKNQDDADRAQKAFEAVDKAYKLLLDQEQKKRALDVIQAGKEYVEHTVKERKKQLKKEGKPTIVEEDDPELFKQAVYKQTMKLFAELEIKRKEREAKEMHERKRQREEEIEAQEKAKREREWQKNFEESRDGRVDSWRNFQANTKGKKEKKNRTFLRPPKVKMEQRE
notes: DnaJ (Hsp40) homolog, subfamily C, member 8, human; also called DNAJC8; source: insect cell/baculovirus, purified, spotted (Invitrogen Protoarray v4.0)
B12: the binding result is given as “binds”.

B13: Nucleosome assembly protein 1-like 5 (natural protein, human, UniProt Q96NT1 1-182, looked up)
chain: MADSENQGPAEPSQAAAAAEAAAEEVMAEGGAQGGDCDSAAGDPDSAAGQMAEEPQTPAENAPKPKNDFIESLPNSVKCRVLALKKLQKRCDKIEAKFDKEFQALEKKYNDIYKPLLAKIQELTGEMEGCAWTLEGEEEEEEEYEDDEEEGEDEEEEEAAAEAAAGAKHDDAHAEMPDDAKK
notes: Nucleosome assembly protein 1-like 5, human; also called NAP1L5; source: insect cell/baculovirus, purified, spotted (Invitrogen Protoarray v4.0)
For the molecule B13, the binding result is given as “binds”.

(Values after publication PMC2808332, “Expanding the Substantial Interactome of NEMO Using Protein Microarrays” (PLoS ONE, 2010).)
